B1: CD81K13 HC 05-hVH_1_69 / LC 06-hVK_1_39 (antibody, V domains shown)
VH: QVQLVQSGAEVKKPGSSVKVSCKASGFNFKDSYLHWVRQAPGQGLEWMGRIDTGNGNVKFDPKFQGRVTITTDESTSTAYMELSSLRSEDTAVYYCVPYGYGFHSWGQGTLVTVSS
VL: DIQMTQSPSSLSASVGDRVTITCRASENIYRTLAWYQQKPGKAPKLLIYAATTLASGVPSRFSGSGSGTDFTLTISSLQPEDFGTYYCQHFWGTPWTFGQGTKVEIK
notes: human constant region
B2: CD81K13 HC 5b-hVH_1_69-GA / LC 03-hVK_1_9 (antibody, V domains shown)
VH: QVQLVQSGAELVKPGSSVKVSCKASGFNFKDSYLHWVRQAPGQGLEWMGRIDTGNGNVKFDPKFQGRVTITTDESTSTAYMELSSLRSEDTAVYYCVPYGYGFHSWGQGTLVTVSS
VL: DIQLTQSPSFLSASVGDRVTITCRASENIYRTLAWYQQKPGKAPKLLIYAATTLASGVPSRFSGSGSGTEFTLTISSLQPEDFATYYCQHFWGTPWTFGQGTKVEIK
notes: human constant region
B3: CD81K13 HC 5b-hVH_1_69 / LC 5b-hVK_1_39 (antibody, V domains shown)
VH: QVQLVQSGAELVKPGSSVKVSCKASGFNFKDSYLHWVRQAPGQGLEWMGRIDTGNGNVKFDPKFQGRVTITTDESTSTAYMELSSLRSEDTAVYYCVPYGYGFHSWGQGTLVTVSS
VL: DIQMTQSPSSLSASVGDRVTITCRASENIYRTLAWYQQKPGKAPKLLIYGATTLADGVPSRFSGSGSGTDFTLTISSLQPEDFATYYCQHFWGTPWTFGQGTKVEIK
notes: human constant region
B4: CD81K13 HC 5b-hVH_1_69-GA / LC 06-hVK_1_39 (antibody, V domains shown)
VH: QVQLVQSGAELVKPGSSVKVSCKASGFNFKDSYLHWVRQAPGQGLEWMGRIDTGNGNVKFDPKFQGRVTITTDESTSTAYMELSSLRSEDTAVYYCVPYGYGFHSWGQGTLVTVSS
VL: DIQMTQSPSSLSASVGDRVTITCRASENIYRTLAWYQQKPGKAPKLLIYAATTLASGVPSRFSGSGSGTDFTLTISSLQPEDFGTYYCQHFWGTPWTFGQGTKVEIK
notes: human constant region
B5: CD81K13 HC 06-hVH_1_3 / LC 5b-hVK_1_39-GA (antibody, V domains shown)
VH: QVQLVQSGAEVKKPGASVKVSCKASGYTFKDSYLHWVRQAPGQRLEWMGRIDTGNGNVKFDPKFQGRVTITTDTSASTAYMELSSLRSEDTAVYYCAPYGYGFHSWGQGTLVTVSS
VL: DIQMTQSPSSLSASVGDRVTITCRASENIYRTLAWYQQKPGKAPKLLIYGATTLADGVPSRFSGSGSGTDFTLTISSLQPEDFATYYCQHFWGTPWTFGQGTKVEIK
notes: human constant region
B6: CD81K13 HC 5b-hVH_1_69 / LC 03-hVK_1_9 (antibody, V domains shown)
VH: QVQLVQSGAELVKPGSSVKVSCKASGFNFKDSYLHWVRQAPGQGLEWMGRIDTGNGNVKFDPKFQGRVTITTDESTSTAYMELSSLRSEDTAVYYCVPYGYGFHSWGQGTLVTVSS
VL: DIQLTQSPSFLSASVGDRVTITCRASENIYRTLAWYQQKPGKAPKLLIYAATTLASGVPSRFSGSGSGTEFTLTISSLQPEDFATYYCQHFWGTPWTFGQGTKVEIK
notes: human constant region
B7: CD81K13 HC 06-hVH_1_3 / LC 05-hVK_1_39 (antibody, V domains shown)
VH: QVQLVQSGAEVKKPGASVKVSCKASGYTFKDSYLHWVRQAPGQRLEWMGRIDTGNGNVKFDPKFQGRVTITTDTSASTAYMELSSLRSEDTAVYYCAPYGYGFHSWGQGTLVTVSS
VL: DIQMTQSPSSLSASVGDRVTITCRASENIYRTLAWYQQKPGKAPKLLIYAATTLASGVPSRFSGSGSGTDFTLTISSLQPEDFATYYCQHFWGTPWTFGQGTKVEIK
notes: human constant region
B8: CD81K13 HC 06-hVH_1_3 / LC 06-hVK_1_39 (antibody, V domains shown)
VH: QVQLVQSGAEVKKPGASVKVSCKASGYTFKDSYLHWVRQAPGQRLEWMGRIDTGNGNVKFDPKFQGRVTITTDTSASTAYMELSSLRSEDTAVYYCAPYGYGFHSWGQGTLVTVSS
VL: DIQMTQSPSSLSASVGDRVTITCRASENIYRTLAWYQQKPGKAPKLLIYAATTLASGVPSRFSGSGSGTDFTLTISSLQPEDFGTYYCQHFWGTPWTFGQGTKVEIK
notes: human constant region
B9: CD81K13 HC 5b-hVH_1_69-GA / LC 05-hVK_1_39 (antibody, V domains shown)
VH: QVQLVQSGAELVKPGSSVKVSCKASGFNFKDSYLHWVRQAPGQGLEWMGRIDTGNGNVKFDPKFQGRVTITTDESTSTAYMELSSLRSEDTAVYYCVPYGYGFHSWGQGTLVTVSS
VL: DIQMTQSPSSLSASVGDRVTITCRASENIYRTLAWYQQKPGKAPKLLIYAATTLASGVPSRFSGSGSGTDFTLTISSLQPEDFATYYCQHFWGTPWTFGQGTKVEIK
notes: human constant region
B10: CD81K13 HC 5b-hVH_1_69 / LC 05-hVK_1_39 (antibody, V domains shown)
VH: QVQLVQSGAELVKPGSSVKVSCKASGFNFKDSYLHWVRQAPGQGLEWMGRIDTGNGNVKFDPKFQGRVTITTDESTSTAYMELSSLRSEDTAVYYCVPYGYGFHSWGQGTLVTVSS
VL: DIQMTQSPSSLSASVGDRVTITCRASENIYRTLAWYQQKPGKAPKLLIYAATTLASGVPSRFSGSGSGTDFTLTISSLQPEDFATYYCQHFWGTPWTFGQGTKVEIK
notes: human constant region
B11: CD81K13 HC 5b-hVH_1_69-GA / LC 04-hVK_1_9 (antibody, V domains shown)
VH: QVQLVQSGAELVKPGSSVKVSCKASGFNFKDSYLHWVRQAPGQGLEWMGRIDTGNGNVKFDPKFQGRVTITTDESTSTAYMELSSLRSEDTAVYYCVPYGYGFHSWGQGTLVTVSS
VL: DIQLTQSPSFLSASVGDRVTITCRASENIYRTLAWYQQKPGKAPKLLIYAATTLASGVPSRFSGSGSGTEFTLTISSLQPEDFGTYYCQHFWGTPWTFGQGTKVEIK
notes: human constant region
B12: CD81K13 HC 06-hVH_1_3 / LC 04-hVK_1_9 (antibody, V domains shown)
VH: QVQLVQSGAEVKKPGASVKVSCKASGYTFKDSYLHWVRQAPGQRLEWMGRIDTGNGNVKFDPKFQGRVTITTDTSASTAYMELSSLRSEDTAVYYCAPYGYGFHSWGQGTLVTVSS
VL: DIQLTQSPSFLSASVGDRVTITCRASENIYRTLAWYQQKPGKAPKLLIYAATTLASGVPSRFSGSGSGTEFTLTISSLQPEDFGTYYCQHFWGTPWTFGQGTKVEIK
notes: human constant region
B13: CD81K13 HC 5b-hVH_1_69-GA / LC 07-hVK_1_27 (antibody, V domains shown)
VH: QVQLVQSGAELVKPGSSVKVSCKASGFNFKDSYLHWVRQAPGQGLEWMGRIDTGNGNVKFDPKFQGRVTITTDESTSTAYMELSSLRSEDTAVYYCVPYGYGFHSWGQGTLVTVSS
VL: DIQMTQSPSSLSASVGDRVTITCRASENIYRTLAWYQQKPGKVPKLLIYAATTLASGVPSRFSGSGSGTDFTLTISSLQPEDVGTYYCQKFWGTPWTFGQGTKVEIK
notes: human constant region
B14: CD81K13 HC 5b-hVH_1_69-GA / LC 5b-hVK_1_39-GA (antibody, V domains shown)
VH: QVQLVQSGAELVKPGSSVKVSCKASGFNFKDSYLHWVRQAPGQGLEWMGRIDTGNGNVKFDPKFQGRVTITTDESTSTAYMELSSLRSEDTAVYYCVPYGYGFHSWGQGTLVTVSS
VL: DIQMTQSPSSLSASVGDRVTITCRASENIYRTLAWYQQKPGKAPKLLIYGATTLADGVPSRFSGSGSGTDFTLTISSLQPEDFATYYCQHFWGTPWTFGQGTKVEIK
notes: human constant region
B15: CD81K13 HC 5b-hVH_1_69-GA / LC 5b-hVK_1_39 (antibody, V domains shown)
VH: QVQLVQSGAELVKPGSSVKVSCKASGFNFKDSYLHWVRQAPGQGLEWMGRIDTGNGNVKFDPKFQGRVTITTDESTSTAYMELSSLRSEDTAVYYCVPYGYGFHSWGQGTLVTVSS
VL: DIQMTQSPSSLSASVGDRVTITCRASENIYRTLAWYQQKPGKAPKLLIYGATTLADGVPSRFSGSGSGTDFTLTISSLQPEDFATYYCQHFWGTPWTFGQGTKVEIK
notes: human constant region
B16: CD81K13 HC 5b-hVH_1_69 / LC 06-hVK_1_39 (antibody, V domains shown)
VH: QVQLVQSGAELVKPGSSVKVSCKASGFNFKDSYLHWVRQAPGQGLEWMGRIDTGNGNVKFDPKFQGRVTITTDESTSTAYMELSSLRSEDTAVYYCVPYGYGFHSWGQGTLVTVSS
VL: DIQMTQSPSSLSASVGDRVTITCRASENIYRTLAWYQQKPGKAPKLLIYAATTLASGVPSRFSGSGSGTDFTLTISSLQPEDFGTYYCQHFWGTPWTFGQGTKVEIK
notes: human constant region
B17: CD81K13 HC 06-hVH_1_3 / LC 03-hVK_1_9 (antibody, V domains shown)
VH: QVQLVQSGAEVKKPGASVKVSCKASGYTFKDSYLHWVRQAPGQRLEWMGRIDTGNGNVKFDPKFQGRVTITTDTSASTAYMELSSLRSEDTAVYYCAPYGYGFHSWGQGTLVTVSS
VL: DIQLTQSPSFLSASVGDRVTITCRASENIYRTLAWYQQKPGKAPKLLIYAATTLASGVPSRFSGSGSGTEFTLTISSLQPEDFATYYCQHFWGTPWTFGQGTKVEIK
notes: human constant region
B18: CD81K13 HC 5b-hVH_1_69 / LC 07-hVK_1_27 (antibody, V domains shown)
VH: QVQLVQSGAELVKPGSSVKVSCKASGFNFKDSYLHWVRQAPGQGLEWMGRIDTGNGNVKFDPKFQGRVTITTDESTSTAYMELSSLRSEDTAVYYCVPYGYGFHSWGQGTLVTVSS
VL: DIQMTQSPSSLSASVGDRVTITCRASENIYRTLAWYQQKPGKVPKLLIYAATTLASGVPSRFSGSGSGTDFTLTISSLQPEDVGTYYCQKFWGTPWTFGQGTKVEIK
notes: human constant region
B19: CD81K13 HC 5b-hVH_1_69 / LC 04-hVK_1_9 (antibody, V domains shown)
VH: QVQLVQSGAELVKPGSSVKVSCKASGFNFKDSYLHWVRQAPGQGLEWMGRIDTGNGNVKFDPKFQGRVTITTDESTSTAYMELSSLRSEDTAVYYCVPYGYGFHSWGQGTLVTVSS
VL: DIQLTQSPSFLSASVGDRVTITCRASENIYRTLAWYQQKPGKAPKLLIYAATTLASGVPSRFSGSGSGTEFTLTISSLQPEDFGTYYCQHFWGTPWTFGQGTKVEIK
notes: human constant region
B20: CD81K13 HC 5b-hVH_1_69 / LC 5b-hVK_1_39-GA (antibody, V domains shown)
VH: QVQLVQSGAELVKPGSSVKVSCKASGFNFKDSYLHWVRQAPGQGLEWMGRIDTGNGNVKFDPKFQGRVTITTDESTSTAYMELSSLRSEDTAVYYCVPYGYGFHSWGQGTLVTVSS
VL: DIQMTQSPSSLSASVGDRVTITCRASENIYRTLAWYQQKPGKAPKLLIYGATTLADGVPSRFSGSGSGTDFTLTISSLQPEDFATYYCQHFWGTPWTFGQGTKVEIK
notes: human constant region
B21: CD81K13 HC 06-hVH_1_3 / LC 5b-hVK_1_39 (antibody, V domains shown)
VH: QVQLVQSGAEVKKPGASVKVSCKASGYTFKDSYLHWVRQAPGQRLEWMGRIDTGNGNVKFDPKFQGRVTITTDTSASTAYMELSSLRSEDTAVYYCAPYGYGFHSWGQGTLVTVSS
VL: DIQMTQSPSSLSASVGDRVTITCRASENIYRTLAWYQQKPGKAPKLLIYGATTLADGVPSRFSGSGSGTDFTLTISSLQPEDFATYYCQHFWGTPWTFGQGTKVEIK
notes: human constant region

Molecular target: T1, CD81 (UniProt P60033 1-236, limits assumed)
T1 construct: whole, on cells; also called CD81 receptor
T1 sequence (looked up): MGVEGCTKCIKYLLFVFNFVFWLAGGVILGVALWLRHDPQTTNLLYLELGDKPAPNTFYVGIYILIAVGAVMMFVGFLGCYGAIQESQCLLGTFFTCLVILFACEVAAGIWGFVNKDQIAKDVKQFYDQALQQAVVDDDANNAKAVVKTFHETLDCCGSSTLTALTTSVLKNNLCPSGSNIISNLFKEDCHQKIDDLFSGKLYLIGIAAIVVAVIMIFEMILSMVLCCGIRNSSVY
Assay: cell ELISA;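 further: antibody binding to HuH7 cells expressing CD81 versus a CD81-negative HuH7 control line, bound antibody detected by secondary reagent, absorbance at 450 nm with 620 nm reference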
Experimental: For the binding cell ELISA assay, HuH7-Rluc-H3 (positive cell line expressing CD81) and HuH7-Rluc-L1 (negative control cell line) were propagated in F-12 DMEM medium with 10% FCS at 37° C. and 5% CO₂. On day 1, the cells were trypsinized at approximately 90% confluence and resuspended at 4×10⁵ cells/mL. […] On day 2, the antibody samples to be tested were prepared in a separate polypropylene round bottom plate with a twofold desired concentration with a final volume of 120 μl. All of the assay samples were diluted in cell culture medium. […] After fixation, each well was washed 3 times with 200 μL PBS/0.05% Tween. The secondary incubation step for detection of bound anti-CD81 antibodies was performed for 2 h at room temperature on a reciprocal shaker. […] Each well was washed three times with 200 μL PBS/0.05% Tween to remove unbound antibodies. […] The absorbance was read using the ELISA Tecan reader at 450 nm with 620 nm reference wavelength.

| Binder | ELISA data |
| --- | --- |
| B1 | 0.603 |
| B2 | 0.788 |
| B3 | 0.463 |
| B4 | 0.528 |
| B5 | 0.37 |
| B6 | 0.73 |
| B7 | 0.315 |
| B8 | 0.323 |
| B9 | 0.858 |
| B10 | 0.905 |
| B11 | 0.786 |
| B12 | 0.371 |
| B13 | 0.11 |
| B14 | 0.684 |
| B15 | 0.737 |
| B16 | 0.522 |
| B17 | 0.352 |
| B18 | 0.114 |
| B19 | 0.695 |
| B20 | 0.646 |
| B21 | 0.388 |

Reference: US20200377590A1 (Hoffmann-La Roche, published 2020)
